Experimental data: ChEMBL document CHEMBL1124703, “Analogues of carbamyl aspartate as inhibitors of dihydroorotase: preparation of boronic acid transition-state analogues and a zinc chelator carbamylhomocysteine” (J Med Chem, 1990)
Each block holds one compound with its values, some of them ahead of it.

Legend:
Details in all cases: Cricetulus griseus
NC(=O)NC(CC(=O)O)C(=O)O = test: Kinetic constant for the inactivation of Dihydroorotase (DHO) at pH 6.0
NC(=O)NC(CCS)C(=O)O = test: Kinetic constant for the inactivation against Dihydroorotase (DHO) at a concentration of 3 uM
[1] = target: Multifunctional protein CAD (Homo sapiens) (UniProt P27708); test: Inhibitory activity against Dihydroorotase (DHO) using CAD protein at concentrations >=6 mM; no inhibition was observed
Chain of Multifunctional protein CAD (Homo sapiens) (P27708 whole entry): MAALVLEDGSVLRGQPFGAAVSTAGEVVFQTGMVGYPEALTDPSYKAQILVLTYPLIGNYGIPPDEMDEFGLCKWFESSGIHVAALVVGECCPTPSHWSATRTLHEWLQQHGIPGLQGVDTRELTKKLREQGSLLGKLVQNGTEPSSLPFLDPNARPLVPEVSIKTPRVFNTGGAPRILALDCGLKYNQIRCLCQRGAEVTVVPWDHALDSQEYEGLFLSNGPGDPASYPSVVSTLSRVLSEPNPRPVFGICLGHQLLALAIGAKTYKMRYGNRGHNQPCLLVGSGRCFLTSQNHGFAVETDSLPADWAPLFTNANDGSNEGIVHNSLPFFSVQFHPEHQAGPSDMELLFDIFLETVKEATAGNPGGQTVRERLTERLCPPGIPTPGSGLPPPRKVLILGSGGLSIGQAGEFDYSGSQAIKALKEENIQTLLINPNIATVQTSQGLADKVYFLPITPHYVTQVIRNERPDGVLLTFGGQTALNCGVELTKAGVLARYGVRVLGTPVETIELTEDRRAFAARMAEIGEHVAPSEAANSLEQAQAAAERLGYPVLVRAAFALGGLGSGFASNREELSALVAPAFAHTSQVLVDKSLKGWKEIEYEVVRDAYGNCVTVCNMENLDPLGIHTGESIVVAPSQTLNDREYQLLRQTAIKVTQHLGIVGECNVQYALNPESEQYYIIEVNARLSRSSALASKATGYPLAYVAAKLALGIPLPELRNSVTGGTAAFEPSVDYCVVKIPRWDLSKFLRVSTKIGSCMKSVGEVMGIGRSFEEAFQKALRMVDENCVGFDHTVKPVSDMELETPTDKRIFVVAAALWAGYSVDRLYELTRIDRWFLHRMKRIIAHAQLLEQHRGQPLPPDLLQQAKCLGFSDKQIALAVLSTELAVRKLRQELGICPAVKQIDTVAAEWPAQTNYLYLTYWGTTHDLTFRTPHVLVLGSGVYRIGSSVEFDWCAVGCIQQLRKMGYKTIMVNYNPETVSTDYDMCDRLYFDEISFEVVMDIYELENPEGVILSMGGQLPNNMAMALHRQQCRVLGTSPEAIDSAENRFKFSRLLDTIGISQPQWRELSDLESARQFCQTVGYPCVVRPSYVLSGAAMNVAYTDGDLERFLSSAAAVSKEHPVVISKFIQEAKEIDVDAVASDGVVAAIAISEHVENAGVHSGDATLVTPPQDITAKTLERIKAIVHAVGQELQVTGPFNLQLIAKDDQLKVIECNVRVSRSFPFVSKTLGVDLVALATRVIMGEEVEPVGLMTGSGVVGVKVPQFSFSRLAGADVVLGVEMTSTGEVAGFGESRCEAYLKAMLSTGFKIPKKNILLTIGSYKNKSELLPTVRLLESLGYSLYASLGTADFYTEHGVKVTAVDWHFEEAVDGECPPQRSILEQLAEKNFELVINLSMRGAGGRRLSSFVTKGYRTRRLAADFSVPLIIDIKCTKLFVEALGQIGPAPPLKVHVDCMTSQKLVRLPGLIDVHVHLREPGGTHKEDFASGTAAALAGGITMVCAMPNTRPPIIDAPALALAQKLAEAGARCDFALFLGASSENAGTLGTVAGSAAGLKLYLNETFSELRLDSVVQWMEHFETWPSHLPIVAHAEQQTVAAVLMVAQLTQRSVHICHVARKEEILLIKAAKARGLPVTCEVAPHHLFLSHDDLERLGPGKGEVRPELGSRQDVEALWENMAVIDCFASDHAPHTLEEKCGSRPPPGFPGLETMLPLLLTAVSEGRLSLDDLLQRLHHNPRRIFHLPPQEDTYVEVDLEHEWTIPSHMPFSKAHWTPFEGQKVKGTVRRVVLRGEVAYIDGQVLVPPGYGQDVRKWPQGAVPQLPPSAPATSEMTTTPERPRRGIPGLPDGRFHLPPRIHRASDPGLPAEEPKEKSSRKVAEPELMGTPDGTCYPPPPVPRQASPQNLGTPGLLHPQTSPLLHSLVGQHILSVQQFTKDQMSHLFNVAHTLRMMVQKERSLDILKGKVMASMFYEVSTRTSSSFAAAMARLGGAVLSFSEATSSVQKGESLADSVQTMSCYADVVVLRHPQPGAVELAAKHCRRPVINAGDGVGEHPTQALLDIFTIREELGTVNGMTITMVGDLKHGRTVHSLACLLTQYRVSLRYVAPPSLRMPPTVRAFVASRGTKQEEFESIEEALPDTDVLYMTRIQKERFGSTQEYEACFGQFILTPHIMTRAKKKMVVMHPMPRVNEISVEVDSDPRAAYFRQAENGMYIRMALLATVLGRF

[2] = target: Multifunctional protein CAD (Homo sapiens) (UniProt P27708); test: Inhibitory activity against Dihydroorotase (DHO); no reproducible apparent Ki data

Compound: Multifunctional protein CAD (Homo sapiens), P27708
- Km (NC(=O)NC(CC(=O)O)C(=O)O): 50 µM
- kinact (NC(=O)NC(CCS)C(=O)O): 460000 min⁻¹

- inhibition [1]: No inhibition
Compound: NC(=O)NC(CB(O)O)C(=O)O (centres undefined)

- inhibition [2]: no reproducible apparent Ki data
Compound: COC(=O)C(CB(O)O)NC(N)=O (centres undefined)
